Target: T1, BMPR-1A receptor extra cellular domain (ECD), P36894
T1 chain: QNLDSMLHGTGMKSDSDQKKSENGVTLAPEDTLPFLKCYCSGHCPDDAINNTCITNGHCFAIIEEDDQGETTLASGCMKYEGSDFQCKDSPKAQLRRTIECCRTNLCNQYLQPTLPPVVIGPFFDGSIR
Assay: radio-ligand competition: cold TDF-1 displacing 125I-labeled TDF-1 from immobilized BMPR-1A ECD
Settings: remark: other sources report otherwise

B1: TDF-1 (BMP-7 or OP-1), P18075 293-431 (ligand, UniProt P18075 293-431, looked up)
chain: STGSKQRSQNRSKTPKNQEALRMANVAENSSSDQRQACKKHELYVSFRDLGWQDWIIAPEGYAAYYCEGECAFPLNSYMNATNHAIVQTLVHFINPETVPKPCCAPTQLNAISVLYFDDSSNVILKKYRNMVVRACGCH
  ED50: 6.5 nM

Source: US20110055942A1
